Measurements from US20080193971.

Key:
[1] = target: T1, recombinant App (Adhesion and penetration protein)
T1 chain: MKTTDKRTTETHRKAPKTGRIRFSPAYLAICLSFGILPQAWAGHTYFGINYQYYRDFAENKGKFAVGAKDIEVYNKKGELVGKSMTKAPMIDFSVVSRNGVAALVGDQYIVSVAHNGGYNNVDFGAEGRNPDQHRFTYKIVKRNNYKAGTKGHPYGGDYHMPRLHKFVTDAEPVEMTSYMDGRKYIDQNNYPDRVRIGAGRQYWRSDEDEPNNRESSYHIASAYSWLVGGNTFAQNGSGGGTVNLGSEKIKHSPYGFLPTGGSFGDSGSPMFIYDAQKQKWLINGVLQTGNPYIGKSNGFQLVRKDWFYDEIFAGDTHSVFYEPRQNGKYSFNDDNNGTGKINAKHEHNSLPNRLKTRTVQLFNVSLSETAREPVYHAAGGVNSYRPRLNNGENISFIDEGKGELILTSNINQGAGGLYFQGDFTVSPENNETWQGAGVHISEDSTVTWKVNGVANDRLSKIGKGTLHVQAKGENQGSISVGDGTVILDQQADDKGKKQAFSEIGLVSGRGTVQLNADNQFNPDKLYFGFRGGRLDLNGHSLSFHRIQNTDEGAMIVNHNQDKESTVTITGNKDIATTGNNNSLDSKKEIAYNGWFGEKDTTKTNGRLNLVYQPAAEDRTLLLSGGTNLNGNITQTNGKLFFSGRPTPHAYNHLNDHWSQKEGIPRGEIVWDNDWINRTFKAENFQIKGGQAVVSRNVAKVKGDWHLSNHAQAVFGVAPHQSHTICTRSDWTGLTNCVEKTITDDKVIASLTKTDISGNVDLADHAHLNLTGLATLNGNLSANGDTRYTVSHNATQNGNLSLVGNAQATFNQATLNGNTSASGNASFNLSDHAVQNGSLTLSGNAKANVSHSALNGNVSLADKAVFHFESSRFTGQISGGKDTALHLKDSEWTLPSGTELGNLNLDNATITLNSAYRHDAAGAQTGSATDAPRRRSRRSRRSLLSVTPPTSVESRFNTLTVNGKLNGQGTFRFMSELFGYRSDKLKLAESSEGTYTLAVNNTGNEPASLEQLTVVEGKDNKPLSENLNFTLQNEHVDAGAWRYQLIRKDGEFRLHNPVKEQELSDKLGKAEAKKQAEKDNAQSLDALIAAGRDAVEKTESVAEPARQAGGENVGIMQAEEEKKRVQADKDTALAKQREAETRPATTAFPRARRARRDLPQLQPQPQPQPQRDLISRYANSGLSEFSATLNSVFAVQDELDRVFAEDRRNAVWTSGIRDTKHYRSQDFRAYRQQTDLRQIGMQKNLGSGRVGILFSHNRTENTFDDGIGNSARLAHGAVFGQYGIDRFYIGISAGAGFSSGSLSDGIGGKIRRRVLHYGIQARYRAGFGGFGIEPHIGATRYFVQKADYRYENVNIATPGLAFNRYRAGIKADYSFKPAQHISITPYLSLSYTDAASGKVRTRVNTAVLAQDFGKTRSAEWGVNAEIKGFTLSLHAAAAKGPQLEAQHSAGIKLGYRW

[2] = target: T2, meningococcal protein 287 (purified)
T2 chain: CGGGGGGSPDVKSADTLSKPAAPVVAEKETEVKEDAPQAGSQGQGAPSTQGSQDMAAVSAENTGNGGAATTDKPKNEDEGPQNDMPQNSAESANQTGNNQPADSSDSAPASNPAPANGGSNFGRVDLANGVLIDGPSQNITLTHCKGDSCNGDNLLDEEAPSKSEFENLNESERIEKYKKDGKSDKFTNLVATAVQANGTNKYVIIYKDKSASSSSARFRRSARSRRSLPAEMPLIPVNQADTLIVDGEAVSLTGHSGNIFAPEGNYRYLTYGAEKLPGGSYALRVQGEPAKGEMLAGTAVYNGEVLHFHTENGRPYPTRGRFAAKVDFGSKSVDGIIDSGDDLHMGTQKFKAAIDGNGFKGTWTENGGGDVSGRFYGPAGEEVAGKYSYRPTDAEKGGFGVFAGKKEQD

[3] = target: T3, GNA1870 surface-exposed lipoprotein, Q9JXV4
T3 chain: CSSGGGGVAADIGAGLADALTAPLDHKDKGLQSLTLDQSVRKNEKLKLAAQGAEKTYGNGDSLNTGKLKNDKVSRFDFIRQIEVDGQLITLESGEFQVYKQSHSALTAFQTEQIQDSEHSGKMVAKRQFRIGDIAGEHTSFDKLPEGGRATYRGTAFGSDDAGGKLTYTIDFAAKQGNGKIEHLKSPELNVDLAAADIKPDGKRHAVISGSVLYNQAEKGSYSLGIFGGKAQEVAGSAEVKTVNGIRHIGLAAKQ

B1: human lactoferrin (protein)
chain: GRRRSVQWCAVSQPEATKCFQWQRNMRKVRGPPVSCIKRDSPIQCIQAIAENRADAVTLDGGFIYEAGLAPYKLRPVAAEVYGTERQPRTHYYAVAVVKKGGSFQLNELQGLKSCHTGLRRTAGWNVPIGTLRPFLNWTGPPEPIEAAVARFFSASCVPGADKGQFPNLCRLCAGTGENKCAFSSQEPYFSYSGAFKCLRDGAGDVAFIRESTVFEDLSDEAERDEYELLCPDNTRKPVDKFKDCHLARVPSHAVVARSVNGKEDAIWNLLRQAQEKFGKDKSPKFQLFGSPSGQKDLLFKDSAIGFSRVPPRIDSGLYLGSGYFTAIQNLRKSEEEVAARRARVVWCAVGEQELRKCNQWSGLSEGSVTCSSASTTEDCIALVLKGEADAMSLDGGYVYTAGKCGLVPVLAENYKSQQSSDPDPNCVDRPVEGYLAVAVVRRSDTSLTWNSVKGKKSCHTAVDRTAGWNIPMGLLFNQTGSCKFDEYFSQSCAPGSDPRSNLCALCIGDEQGENKCVPNSNERYYGYTGAFRCLAENAGDVAFVKDVTVLQNTDGNNNEAWAKDLKLADFALLCLDGKRKPVTEARSCHLAMAPNHAVVSRMDKVERLKQVLLHQQAKFGRNGSDCPDKFCLFQSETKNLLFNDNTECLARLHGKTTYEKYLGPQYVAGITNLKKCSTSPLLEACEFLRK
[1]
  proteolytic cleavage (western blot with anti-App): the App antigen was cleaved in different fragments
[2]
  proteolytic cleavage (SDS-PAGE and western blot with rabbit anti-287): Lane 3 shows definite cleavage of protein 287
  share of N-terminus RSLPAEMPL in the ~19 kDa cleavage fragment: RSLPAEMPL (˜30%)
  share of N-terminus SLPAEMPLI in the ~19 kDa cleavage fragment: SLPAEMPLI (˜70%)
[3]
  proteolytic degradation on meningococci (western blot with anti-GNA1870): lactoferrin treatment under conditions which degrade App had no effect on ONA1870
